{"source": "paper PMC8741891", "target": "Escherichia coli heat-labile enterotoxin holotoxin (human enterotoxigenic strain PE0415), nicked and reduced (E. coli (human enterotoxigenic strain PE0415)) (UniProt P43530)", "assay": "ELISA; […] (1 ug/mL) […] (20 ug/mL, […]) for 1 h at 37 C; […]", "data": [{"substance": "protein disulfide isomerase, reduced (from UniProt P07237 18-508) (enzyme)", "values": [{"measurement": "percent of A1 released from the holotoxin by PDI", "result": 7, "unit": "%"}]}]}
